Measurements reported in patent US20230037815A1.

Biological target: human CD19 on KILR Raji cells (UniProt P15391)
Assay: cell-based or functional assay

human CD19 on KILR Raji cells, sequence (P15391 20-556 limits assumed): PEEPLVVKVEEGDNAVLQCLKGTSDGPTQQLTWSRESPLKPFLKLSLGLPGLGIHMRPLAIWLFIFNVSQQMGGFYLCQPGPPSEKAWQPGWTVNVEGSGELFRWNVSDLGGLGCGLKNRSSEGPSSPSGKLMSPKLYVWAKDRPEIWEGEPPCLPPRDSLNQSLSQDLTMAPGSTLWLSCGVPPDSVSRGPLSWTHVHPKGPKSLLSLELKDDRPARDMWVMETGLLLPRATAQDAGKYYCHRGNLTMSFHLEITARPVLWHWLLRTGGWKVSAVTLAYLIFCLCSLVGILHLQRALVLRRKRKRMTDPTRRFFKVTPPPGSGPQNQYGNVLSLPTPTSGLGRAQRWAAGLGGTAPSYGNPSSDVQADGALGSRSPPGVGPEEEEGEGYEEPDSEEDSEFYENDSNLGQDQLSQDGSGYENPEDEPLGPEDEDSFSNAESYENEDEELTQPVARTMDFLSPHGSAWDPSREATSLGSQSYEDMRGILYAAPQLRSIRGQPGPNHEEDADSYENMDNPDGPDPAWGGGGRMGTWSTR

## blinatumomab (bispecific antibody)
  EC50 (pg/mL) of T cell-redirected killing of KILR Raji cells, +HSA: 10800 pg/mL
  EC50 (pg/mL) of T cell-redirected killing of KILR Raji cells, -HSA: 2850 pg/mL
